The text below walks through data of paper PMC13033339.

Usually stoichiometry N stands for the number of molecules, sites or subunits per partner or assembly.

Common to all, as to test: cryo-EM structure; genome-packed Douge virions purified from M. smegmatis lysate (PEG, CsCl gradient), vitrified at 4 °C; capsid, connector-vertex, tail tube, baseplate and central fiber reconstructed separately (2.18-4.26 Å) and joined in a composite map; the proteins stood in the assembled virion
Assay [1] addresses adaptor protein, gp9 of mycobacteriophage Douge (mycobacteriophage Douge).
Assay [2] addresses baseplate hub protein (BHP), gp18 of mycobacteriophage Douge (mycobacteriophage Douge).
Assay [3] concerns the target capsid cement protein (CCP), gp113 of mycobacteriophage Douge (mycobacteriophage Douge).
Assay [4] addresses central fiber protein (CFP), gp20 of mycobacteriophage Douge (mycobacteriophage Douge).
Assay [5] has as its target distal tail protein (DTP), gp17 of mycobacteriophage Douge (mycobacteriophage Douge).
Assay [6] concerns the target portal protein, gp5 of mycobacteriophage Douge (mycobacteriophage Douge).
Assay [7] has as its target stopper protein, gp10 of mycobacteriophage Douge (mycobacteriophage Douge).
The target of assay [8] is tail tube protein (TTP), gp13 of mycobacteriophage Douge (mycobacteriophage Douge).
The target in assay [9] is tape measure protein (TMP), gp16 of mycobacteriophage Douge (mycobacteriophage Douge).
The target of assay [10] is terminator protein, gp12 of mycobacteriophage Douge (mycobacteriophage Douge).

The substance “adaptor protein, gp9 of mycobacteriophage Douge (natural protein)” displayed a stoichiometry N in assay [1] of 12.

In turn, “baseplate hub protein (BHP), gp18 of mycobacteriophage Douge (natural protein)” yielded a stoichiometry N in assay [2] of 3.

Substance “capsid cement protein (CCP), gp113 of mycobacteriophage Douge (natural protein)” gave a stoichiometry N in [3] of 2.

On to “central fiber protein (CFP), gp20 of mycobacteriophage Douge (natural protein)”, for which the stoichiometry N in assay [4] came out at 3.

“distal tail protein (DTP), gp17 of mycobacteriophage Douge (natural protein)” returned a stoichiometry N in assay [5] of 6.

“portal protein, gp5 of mycobacteriophage Douge (natural protein)” displayed a stoichiometry N in [6] of 12.

With “stopper protein, gp10 of mycobacteriophage Douge (natural protein)”, in assay [7], the stoichiometry N was 6.

Turning to “tail tube protein (TTP), gp13 of mycobacteriophage Douge (natural protein)”, the stoichiometry N in [8] came to 6.

As for “tape measure protein (TMP), gp16 of mycobacteriophage Douge (natural protein)”, the stoichiometry N in [9] stood at 3.

In turn, “terminator protein, gp12 of mycobacteriophage Douge (natural protein)” showed a stoichiometry N in assay [10] of 6.
